For this experiment, the target named is T1, Mms4 (S. cerevisiae, UniProt P38257 1-691).
T1 sequence (looked up): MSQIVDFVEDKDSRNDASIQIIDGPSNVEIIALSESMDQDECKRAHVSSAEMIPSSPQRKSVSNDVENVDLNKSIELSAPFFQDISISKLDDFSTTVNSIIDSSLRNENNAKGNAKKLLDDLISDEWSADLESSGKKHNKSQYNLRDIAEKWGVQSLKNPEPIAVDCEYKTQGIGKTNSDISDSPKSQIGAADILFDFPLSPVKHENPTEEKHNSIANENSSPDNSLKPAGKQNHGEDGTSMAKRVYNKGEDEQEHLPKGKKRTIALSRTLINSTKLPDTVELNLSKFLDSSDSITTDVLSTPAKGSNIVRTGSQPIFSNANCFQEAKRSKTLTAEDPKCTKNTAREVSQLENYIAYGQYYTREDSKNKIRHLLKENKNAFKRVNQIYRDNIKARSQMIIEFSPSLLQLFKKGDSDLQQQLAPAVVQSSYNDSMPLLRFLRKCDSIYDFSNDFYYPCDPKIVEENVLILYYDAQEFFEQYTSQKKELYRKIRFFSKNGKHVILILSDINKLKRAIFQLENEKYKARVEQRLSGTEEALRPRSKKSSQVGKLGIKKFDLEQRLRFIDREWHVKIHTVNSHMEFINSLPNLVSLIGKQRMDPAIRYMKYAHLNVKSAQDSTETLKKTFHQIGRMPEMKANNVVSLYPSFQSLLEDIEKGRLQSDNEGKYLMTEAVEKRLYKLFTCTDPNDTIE
Description: cross-linking.

B1: Mus81 (enzyme, S. cerevisiae, UniProt Q04149 1-632, looked up)
chain: MELSSNLKDLYIEWLQELVDGLTPKQEQLKIAYEKAKRNLQNAEGSFYYPTDLKKVKGIGNTIIKRLDTKLRNYCKIHHISPVEAPSLTQTSSTRPPKRTTTALRSIVNSCENDKNEAPEEKGTKKRKTRKYIPKKRSGGYAILLSLLELNAIPRGVSKEQIIEVAGKYSDHCMTPNFSTKEFYGAWSSIAALKKHSLVLEEGRPKRYSLTEEGVELTKSLKTADGISFPKENEEPNEYSVTRNESSEFTANLTDLRGEYGKEEEPCDINNTSFMLDITFQDLSTPQRLQNNVFKNDRLNSQTNISSHKLEEVSDDQTVPDSALKAKSTIKRRRYNGVSYELWCSGDFEVFPIIDHREIKSQSDREFFSRAFERKGMKSEIRQLALGDIIWVAKNKNTGLQCVLNTIVERKRLDDLALSIRDNRFMEQKNRLEKSGCEHKYYLIEETMSGNIGNMNEALKTALWVILVYYKFSMIRTCNSDETVEKIHALHTVISHHYSQKDLIVIFPSDLKSKDDYKKVLLQFRREFERKGGIECCHNLECFQELMGKGDLKTVGELTIHVLMLVKGISLEKAVAIQEIFPTLNKILMAYKTCSSEEEAKLLMFNVLGDAPGAKKITKSLSEKIYDAFGKL
On to B1, for which the binding result is on record as “binds”.
